The record followed here is US20050100554A1 (published 2005).

The labels stand for the following.
T1: Human papillomavirus 16 L1 (Human papillomavirus 16, UniProt P03101 1-505)
T1 construct: also called HPV 16 L1; cbe_251784
T1 sequence: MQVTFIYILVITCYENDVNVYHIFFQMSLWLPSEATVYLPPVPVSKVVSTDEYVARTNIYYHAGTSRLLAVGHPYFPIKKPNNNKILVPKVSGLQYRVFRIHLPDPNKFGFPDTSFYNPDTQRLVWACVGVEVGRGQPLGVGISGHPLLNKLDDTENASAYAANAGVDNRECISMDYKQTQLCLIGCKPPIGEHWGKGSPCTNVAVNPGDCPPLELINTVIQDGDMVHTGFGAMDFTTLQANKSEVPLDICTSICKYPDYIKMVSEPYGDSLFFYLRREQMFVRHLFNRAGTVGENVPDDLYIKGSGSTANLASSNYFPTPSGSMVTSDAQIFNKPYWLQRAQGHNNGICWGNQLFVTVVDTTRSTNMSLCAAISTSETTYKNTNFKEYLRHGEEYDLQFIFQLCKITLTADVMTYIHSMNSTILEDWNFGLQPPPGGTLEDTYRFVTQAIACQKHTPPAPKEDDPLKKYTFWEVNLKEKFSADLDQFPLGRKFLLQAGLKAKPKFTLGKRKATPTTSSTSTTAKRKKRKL

T2: Human papillomavirus 16 L2 (Human papillomavirus 16, UniProt P03107 1-473)
T2 construct: also called HPV 16 L2; cbe_251737
T2 sequence: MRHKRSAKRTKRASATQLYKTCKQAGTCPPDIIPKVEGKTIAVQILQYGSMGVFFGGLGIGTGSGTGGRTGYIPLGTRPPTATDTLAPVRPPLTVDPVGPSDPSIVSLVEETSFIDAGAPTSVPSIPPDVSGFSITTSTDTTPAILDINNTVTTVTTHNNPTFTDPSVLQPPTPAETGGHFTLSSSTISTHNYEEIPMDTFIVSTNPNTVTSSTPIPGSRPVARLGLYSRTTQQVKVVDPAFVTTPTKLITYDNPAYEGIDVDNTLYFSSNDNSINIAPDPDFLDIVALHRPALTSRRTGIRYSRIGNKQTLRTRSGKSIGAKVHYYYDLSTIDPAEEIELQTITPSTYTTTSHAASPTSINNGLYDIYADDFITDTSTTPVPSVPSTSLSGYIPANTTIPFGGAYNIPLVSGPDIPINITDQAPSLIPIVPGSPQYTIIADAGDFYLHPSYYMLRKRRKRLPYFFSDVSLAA

T3: hypothetical protein FLJ20259 (human, UniProt Q2TAL8 1-776)
T3 construct: also called cbe_1469980
T3 sequence: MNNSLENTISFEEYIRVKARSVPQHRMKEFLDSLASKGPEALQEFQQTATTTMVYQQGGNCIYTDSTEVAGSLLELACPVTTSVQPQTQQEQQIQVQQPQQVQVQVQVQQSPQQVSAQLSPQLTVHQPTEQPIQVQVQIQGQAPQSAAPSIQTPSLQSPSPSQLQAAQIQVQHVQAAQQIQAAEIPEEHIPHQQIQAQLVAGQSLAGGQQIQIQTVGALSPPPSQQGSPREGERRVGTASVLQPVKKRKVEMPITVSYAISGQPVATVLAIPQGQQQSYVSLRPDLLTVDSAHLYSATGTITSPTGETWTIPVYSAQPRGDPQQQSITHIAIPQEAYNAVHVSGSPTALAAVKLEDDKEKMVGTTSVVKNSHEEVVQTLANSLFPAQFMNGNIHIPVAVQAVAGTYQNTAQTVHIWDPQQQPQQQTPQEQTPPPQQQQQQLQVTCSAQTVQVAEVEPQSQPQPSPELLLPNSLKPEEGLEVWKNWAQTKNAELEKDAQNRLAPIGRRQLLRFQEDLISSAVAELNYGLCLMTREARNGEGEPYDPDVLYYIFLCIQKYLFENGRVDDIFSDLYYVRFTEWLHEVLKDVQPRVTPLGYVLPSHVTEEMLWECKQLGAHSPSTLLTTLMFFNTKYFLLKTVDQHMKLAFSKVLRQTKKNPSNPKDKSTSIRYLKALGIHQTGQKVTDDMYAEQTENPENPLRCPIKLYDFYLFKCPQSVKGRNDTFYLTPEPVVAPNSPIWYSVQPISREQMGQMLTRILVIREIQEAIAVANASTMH

T4: testis-specific protein NYD-TSP1 (human, UniProt Q9BXG8 1-430)
T4 construct: also called Hs.98226; cbe_3826540
T4 sequence: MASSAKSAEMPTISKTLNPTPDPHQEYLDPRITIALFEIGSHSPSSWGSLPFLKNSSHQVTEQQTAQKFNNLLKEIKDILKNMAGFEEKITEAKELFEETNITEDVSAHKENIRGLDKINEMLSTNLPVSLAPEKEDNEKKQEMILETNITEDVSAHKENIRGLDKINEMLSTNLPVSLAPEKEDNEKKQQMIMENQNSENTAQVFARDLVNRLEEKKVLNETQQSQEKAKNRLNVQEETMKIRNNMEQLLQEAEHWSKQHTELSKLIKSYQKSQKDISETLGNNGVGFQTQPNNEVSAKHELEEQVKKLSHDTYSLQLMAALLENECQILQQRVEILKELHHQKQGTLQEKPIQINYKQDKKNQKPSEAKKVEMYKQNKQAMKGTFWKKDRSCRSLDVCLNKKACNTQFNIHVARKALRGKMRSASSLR

B1: eukaryotic translation initiation factor 2B, subunit 2 beta, 39 kDa (other)
chain: MPGSAAKGSELSERIESFVETLKRGGGPRSSEEMARETLGLLRQIITDHRWSNAGELMELIRREGRRMTAAQPSETTVGNMVRRVLKIIREEYGRLHGRSDESDQQESLHKLLTSGGLNEDFSFHYAQLQSNIIEAINELLVELEGTMENIAAQALEHIHSNEVIMTIGFSRTVEAFLKEAARKRKFHVIVAECAPFCQGHEMAVNLSKAGIETTVMTDAAIFAVMSRVNKVIIGTKTILANGALRAVTGTHTLALAAKHHSTPLIVCAPMFKLSPQFPNEEDSFHKFVAPEEVLPFTEGDILEKVSVHCPVFDYVPPELITLFISNIGGNAPSYIYRLMSELYHPDDHVL
notes: also called EIF2B2; cbe_3625721
B2: HCDI protein (other)
chain: MGWRRKRVPQRGRKAPPPQLHGNINNLYFPIRWRDRLHWDSPNPAAECQRHEVTLVSRKPGPGRITWDELAASGLPSCDAAVNLAGENILNPLRRWNETFQKEVLGSRLETTQLLAKAITKAPQPPKAWVLVTGVAYYQPSLTAEYDEDSPGGDFDFFSNLVTKWEAAARLPGDSTRQVVVRSGVVLGRGGGAMGHMLLPFRLGLGGPIGSGHQFFPWIHIGDLAGILTHALEANHVHGVLNGVAPSSATNAEFAQTLGAALGRRAFIPLPSAVVQAVFGRQRAIMLLEGQKVIPQRTLATGYQYSFPELGAALKEIVA
notes: also called cbe_1505425
B3: KIAA0276 (other)
chain: MHSDAAAVNFQLNSHLSTLANIHKIYHTLNKLNLTEDIGQDDHQTGSLRSCSSSDCFNKVMPPRKKRRPASGDDLSAKKSRHDSMYRKYDSTRIKTEEEAFSSKRCLEWFYEYAGTDDVVGPEGMEKFCEDIGVEPENVVMLVLAWKLDAQNMGYFTLQEWLKGMTSLQCDTTEKLRNTLDYLRSFLNDSTNFKLIYRYAFDFAREKDQRSLDINTAKCMLGLLLGKIWPLFPVFHQFLEQSKYKVINKDQWCNVLEFSRTINLDLSNYDEDGAWPVLLDEFVEWYKDKQMS
notes: also called cbe_4270335
B4: low molecular mass ubiquinone-binding protein (9.5 kD) (other)
chain: MGREFGNLTRMRHVISYSLSPFEQRAYPHVFTKGIPNVLRRIRESFFRVVPQFVVFYLIYTWGTEEFERSKRRIQLPMKMTNEQRIRMTVPCL
notes: also called QP-C; cbe_1710
B5: Human Papillomavirus 1a E2 (other)
chain: MENLSSRLDLLQEQLMNLYEQDSKLIEDQIKQWNLIRQEQVLFHFARKNGVMRIGLQAVPSLASSQEKAKTAIEMVLHLESLKDSPYGTEDWSLQDTSRELFLAPPAGTFKKSGSTLEVTYDNNPDNQTRHTIWNHVYYQNGDDVWRKVSSGVDAVGVYYLEHDGYKNYYVLFAEEASKYSTTGQYAVNYRGKRFTNVMSSTSSPRAAGAPAVHSDYPTLSESDTAQQSTSIDYTELPGQGETSQVRQRQQKTPVRRRPYGRRRSRSPRGGGRREGESTPSRTPGSVPSARDVGSIHTTPQKGHSSRLRRLLQEAWDPPVVCVKGGANQLKCLRYRLKASTQVDFDSISTTWHWTDRKNTERIGSARMLVKFIDEAQREKFLERVALPRSVSVFLGQFNGS
notes: also called HPV 1a E2; cbe_251917
B6: crystallin, alpha B (other)
chain: MDIAIHHPWIRRPFFPFHSPSRLFDQFFGEHLLESDLFPTSTSLSPFYLRPPSFLRAPSWFDTGLSEMRLEKDRFSVNLDVKHFSPEELKVKVLGDVIEVHGKHEERQDEHGFISREFHRKYRIPADVDPLTITSSLSSDGVLTVNGPRKQVSGPERTIPITREEKPAVTAAPKK
notes: also called CRYAB; cbe_4281271
B7: hypothetical protein MGC3222 (other)
chain: VVSPDSIHSVAPENEGRLVHIIGALRTSKLLSDPNYGVHLPAVKLRRHVEMYQWVETEESREYTEDGQVKKETRYSYNTEWRSEIINSKNFDREIGHNNPSAMAVESFTATAPFVQIGRFFLSSGLIDKVDNFKSLSLSKLEDPHVDIIRRGDFFYHSENPKYPEVGDLRVSFSYAGLSGDDPDLGPAHVVTVIARQRGDQLVPFSTKSGDTLLLLHHGDFSAEVSAVPYSYGGGTSMSFLPSSGYLIRSHYQGS
notes: also called cbe_3583511
B8: Prey2777 (other)
chain: MNPVPHWGEVFLLVGGEGEHLASQGTTPARDHRVGISPASQQAQPESWRRRQRDKGVDPEKAPSLTRQSQNPPSLTAPLGMPSACSCLPCGPAPEAAIILAGPPTALTVLPKGTGLKKSKRLLLESLMRRRIAHLKWGLPRRILESYFLFNFLGSCSLTLAGARLSGLNTGQELQAQQERYCEAQGSPPGLKSPERFQRVQRPDRKSSKLPIQARALERNRPHMSEPIKHFHPA
notes: also called FLJ23584; hypothetical protein FLJ23584

Assay [1] deals with B5. Kind of assay: Y2H; INT ID 416.
Assay [2] addresses T1, Human papillomavirus 16 L1. The assay can be described thus: Y2H; INT ID 196.
Assay [3] addresses T2, Human papillomavirus 16 L2. The assay can be described thus: Y2H; INT ID 191.
The target of assay [4] is B5. Kind of assay: Y2H; INT ID 383.
For assay [5], the target named is T3, hypothetical protein FLJ20259. Kind of assay: Y2H; INT ID 411.
In a further assay the target is T5, ribosomal protein S10 (human, UniProt P46783 1-165).
T5 construct: also called RPS10; cbe_2826346
The assay can be described thus: Y2H; INT ID 412.

The target in assay [6] is T6, ankylosis, progressive homolog (mouse) (human, UniProt Q9HCJ1 1-492).
T6 construct: also called ANKH; cbe_3641816
T6 sequence (Q9HCJ1 whole entry): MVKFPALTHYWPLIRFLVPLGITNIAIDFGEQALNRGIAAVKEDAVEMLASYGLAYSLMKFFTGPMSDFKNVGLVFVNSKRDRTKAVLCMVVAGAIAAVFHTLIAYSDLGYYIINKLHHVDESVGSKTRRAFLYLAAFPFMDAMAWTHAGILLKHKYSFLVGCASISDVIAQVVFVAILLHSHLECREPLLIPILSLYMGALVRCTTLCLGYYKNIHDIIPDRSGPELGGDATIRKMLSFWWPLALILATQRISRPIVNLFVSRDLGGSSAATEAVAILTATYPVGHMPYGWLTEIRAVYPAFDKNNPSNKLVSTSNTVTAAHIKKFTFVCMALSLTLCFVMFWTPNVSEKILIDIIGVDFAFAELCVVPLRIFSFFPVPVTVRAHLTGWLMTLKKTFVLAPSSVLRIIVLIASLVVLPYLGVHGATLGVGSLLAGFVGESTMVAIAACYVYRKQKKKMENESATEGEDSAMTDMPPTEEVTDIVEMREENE
Kind of assay: Y2H; INT ID 417.

Assay [7] concerns the target T4, testis-specific protein NYD-TSP1. Kind of assay: Y2H; INT ID 418.
Another assay has as its target T7, GNB2L1 (human, UniProt P63244 1-317).
T7 construct: also called cbe_4269834
The assay can be described thus: Y2H; INT ID 420.

Assay [8] addresses T1, Human papillomavirus 16 L1. Kind of assay: Y2H; INT ID 197.
In assay [9] the target is B5. Kind of assay: Y2H; INT ID 415.
Assay [10] concerns the target B5. Kind of assay: Y2H; INT ID 410.

As to B1, the binding result in [1] was “binds”.
On to B2, for which the binding result in [2] is “binds”.
In the case of B3, the binding result in assay [3] is “binds”.
Consider B4, for which, in assay [4], the binding result is “binds”.
Regarding B5, the binding result (in assay [5]; in the assay with ribosomal protein S10; in assay [6]; in assay [7]; with GNB2L1) was “binds” in each case.
For the molecule B6, the binding result in assay [8] is reported as “binds”.
As to B7, the binding result in [9] is “binds”.
For the molecule B8, the binding result in [10] is “binds”.
